Assay results as given in patent US20180333502A1 (published 2018).

What was measured:
[1] = molecular target: T1, human CD73 on Calu6 cells (human, UniProt P21589 27-549); assay: cell-based or functional assay
T1 sequence (looked up): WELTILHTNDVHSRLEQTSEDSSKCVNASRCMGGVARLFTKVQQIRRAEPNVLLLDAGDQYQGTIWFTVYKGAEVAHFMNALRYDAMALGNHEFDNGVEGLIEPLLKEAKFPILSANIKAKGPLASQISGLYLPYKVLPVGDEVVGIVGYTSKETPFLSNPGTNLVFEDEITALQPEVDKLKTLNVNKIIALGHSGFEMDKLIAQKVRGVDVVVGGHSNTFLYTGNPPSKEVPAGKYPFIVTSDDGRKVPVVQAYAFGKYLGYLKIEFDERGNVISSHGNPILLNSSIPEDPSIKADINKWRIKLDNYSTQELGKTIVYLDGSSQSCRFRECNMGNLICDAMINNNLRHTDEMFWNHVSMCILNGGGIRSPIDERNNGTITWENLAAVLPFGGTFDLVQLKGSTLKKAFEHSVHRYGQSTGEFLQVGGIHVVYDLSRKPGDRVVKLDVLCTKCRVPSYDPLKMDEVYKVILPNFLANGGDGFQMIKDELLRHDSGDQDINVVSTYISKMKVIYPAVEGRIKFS

[2] = molecular target: T2, human GITR on cells (activated human T cells; 3A9-hGITR cells) (human, UniProt Q9Y5U5 26-241); assay: cell-based or functional assay
T2 sequence (looked up): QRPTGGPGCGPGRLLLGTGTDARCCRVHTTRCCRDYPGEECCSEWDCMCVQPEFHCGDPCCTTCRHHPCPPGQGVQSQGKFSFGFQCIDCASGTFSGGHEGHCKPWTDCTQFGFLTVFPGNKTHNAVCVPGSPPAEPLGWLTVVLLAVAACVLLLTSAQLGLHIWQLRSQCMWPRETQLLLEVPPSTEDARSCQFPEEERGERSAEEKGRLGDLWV

B1: 11F11 (antibody, human IgG2, kappa, V domains shown)
VH: QVQLVESGGGVVQPGRSLRLSCATSGFTFSNYGMHWVRQAPGKGLEWVAVILYDGSNKYYPDSVKGRFTISRDNSKNTLYLQMNSLRAEDTAVYYCARGGSSWYPDSFDIWGQGTMVTVSS
VL: DIQMTQSPSSLSASVGDRVTITCRASQGISSWLAWYQQKPEKAPKSLIYAASSLQSGVPSRFSGSGSGTDFTLTISSLQPEDFATYYCQQYNSYPLTFGGGTKVEIKR
- Ymax, CD73 internalization, Calu6 cells, 2 h [1]: 98 % of 100 nM 11F11

B2: CD73.10-IgG2-C219S (antibody)
heavy: QVQLVESGGGVVQPGRSLRLSCAASGFTFSNYGMHWVRQAPGKGLEWVAVIWYDESNKYYPDSVKGRFTISRDNSKNTLYLQMNSLRAEDTAVYYCARGGSSWYPDSFDIWGQGTMVTVSSASTKGPSVFPLAPCSRSTSESTAALGCLVKDYFPEPVTVSWNSGALTSGVHTFPAVLQSSGLYSLSSVVTVPSSNFGTQTYTCNVDHKPSNTKVDKTVERKSCVECPPCPAPPVAGPSVFLFPPKPKDTLMISRTPEVTCVVVDVSHEDPEVQFNWYVDGVEVHNAKTKPREEQFNSTFRVVSVLTVVHQDWLNGKEYKCKVSNKGLPAPIEKTISKTKGQPREPQVYTLPPSREEMTKNQVSLTCLVKGFYPSDIAVEWESNGQPENNYKTTPPMLDSDGSFFLYSKLTVDKSRWQQGNVFSCSVMHEALHNHYTQKSLSLSPG
light: not shown
- Ymax, CD73 internalization, Calu6 cells, 2 h [1]: 99 % of 100 nM 11F11

B3: CD73.10-IgG2-C219S-IgG1.1 (antibody)
heavy: QVQLVESGGGVVQPGRSLRLSCAASGFTFSNYGMHWVRQAPGKGLEWVAVIWYDESNKYYPDSVKGRFTISRDNSKNTLYLQMNSLRAEDTAVYYCARGGSSWYPDSFDIWGQGTMVTVSSASTKGPSVFPLAPCSRSTSESTAALGCLVKDYFPEPVTVSWNSGALTSGVHTFPAVLQSSGLYSLSSVVTVPSSNFGTQTYTCNVDHKPSNTKVDKTVERKSCVECPPCPAPPVAGPSVFLFPPKPKDTLMISRTPEVTCVVVDVSHEDPEVKFNWYVDGVEVHNAKTKPREEQYNSTYRVVSVLTVLHQDWLNGKEYKCKVSNKALPSSIEKTISKAKGQPREPQVYTLPPSREEMTKNQVSLTCLVKGFYPSDIAVEWESNGQPENNYKTTPPMLDSDGSFFLYSKLTVDKSRWQQGNVFSCSVMHEALHNHYTQKSLSLSPG
light: not shown
- Ymax, CD73 internalization, Calu6 cells, 2 h [1]: 99 % of 100 nM 11F11

B4: CD73.4-IgG2.3G1.1f-KH (antibody)
heavy: QVQLVESGGGVVQPGRSLRLSCAASGFTFSNYGMHWVRQAPGKGLEWVAVILYDGSNKYYPDSVKGRFTISRDNSKNTLYLQMNSLRAEDTAVYYCARGGSSWYPDSFDIWGQGTMVTVSSASTKGPSVFPLAPCSRSTSESTAALGCLVKDYFPEPVTVSWNSGALTSGVHTFPAVLQSSGLYSLSSVVTVPSSNFGTQTYTCNVDHKPSNTKVDKTVERKSCVECPPCPAPPVAGPSVFLFPPKPKDTLMISRTPEVTCVVVDVSHEDPEVKFNWYVDGVEVHNAKTKPREEQYNSTYRVVSVLTVLHQDWLNGKEYKCKVSNKALPSSIEKTISKAKGQPREPQVYTLPPSREEMTKNQVSLTCLVKGFYPSDIAVEWESNGQPENNYKTTPPVLDSDGSFFLYSKLTVDKSRWQQGNVFSCSVMHEALHNHYTQKSLSLSPGK
light: not shown
- Ymax, CD73 internalization, Calu6 cells, 2 h [1]: 97 % of 100 nM 11F11

B5: anti-GITR-IgG2 (antibody)
heavy: QVQLVESGGGVVQPGRSLRLSCAASGFTFSSYGMHWVRQAPGKGLEWVAVIWYEGSNKYYADSVKGRFTISRDNSKNTLYLQMNSLRAEDTAVYYCARGGSMVRGDYYYGMDVWGQGTTVTVSSASTKGPSVFPLAPCSRSTSESTAALGCLVKDYFPEPVTVSWNSGALTSGVHTFPAVLQSSGLYSLSSVVTVPSSNFGTQTYTCNVDHKPSNTKVDKTVERKCCVECPPCPAPPVAGPSVFLFPPKPKDTLMISRTPEVTCVVVDVSHEDPEVQFNWYVDGVEVHNAKTKPREEQFNSTFRVVSVLTVVHQDWLNGKEYKCKVSNKGLPAPIEKTISKTKGQPREPQVYTLPPSREEMTKNQVSLTCLVKGFYPSDIAVEWESNGQPENNYKTTPPMLDSDGSFFLYSKLTVDKSRWQQGNVFSCSVMHEALHNHYTQKSLSLSPGK
light: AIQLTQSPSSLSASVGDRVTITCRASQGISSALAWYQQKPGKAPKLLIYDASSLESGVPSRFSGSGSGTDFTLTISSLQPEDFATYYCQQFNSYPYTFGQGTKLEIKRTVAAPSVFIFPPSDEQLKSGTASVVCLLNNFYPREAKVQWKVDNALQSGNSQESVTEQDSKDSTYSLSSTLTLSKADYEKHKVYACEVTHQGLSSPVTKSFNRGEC
- Emax (%), phospho-p65 NFkB signaling, CD4+ T cells [2]: 69 % of GITR.6.G2.G1f
- Emax (%), phospho-p65 NFkB signaling, CD8+ T cells [2]: 85 % of GITR.6.G2.G1f
